Values belong to the molecule of their own block, whether it stands above or below them.
What was measured:
[1] = molecular target: ErbB2/delD4, human ErbB2 with deletion of ECD subdomain 4 (deletion of amino acids 489-560) (human) (UniProt P04626); assay: ELISA; panel e; cell lysates; conditions: ligand
[2] = molecular target: ErbB2/delD2, human ErbB2 with deletion of ECD subdomain 2 (deletion of amino acids 196-320) (human) (UniProt P04626); assay: ELISA; panel e; cell lysates; conditions: ligand
[3] = molecular target: T1, ErbB2 p95 fragment (minus ECD) (human, UniProt P04626 648-1255, limits assumed); assay: co-immunoprecipitation with a PEPD antibody from lysates of APMA-treated CHO-K1/ErbB2 cells, western blot
T1 construct: domain: trans-membrane and intracellular regions (p95 fragment, minus ECD); Generated in CHO-K1/ErbB2 cells by 1 mM APMA for 0.25 h and tested in cell lysates; also called trans-membrane and intracellular regions of ErbB2
Method: FIG. 8. Data showing validation of a cell line used in the present disclosure, and lack of binding of PEPD to the transmembrane and intracellular regions of human ErbB2. (a) CHO-K1 cells were transiently transfected with an ErbB2-expressing plasmid (pCMV6-XL5-ERBB2) or the empty plasmid for 24 h. Human bladder cancer RT-4 cells and human breast cancer MCF-7 cells were untreated and were used as positive controls for ErbB1, ErbB3 and ErbB4. Cell lysates were analyzed by western blotting. GAPDH is a loading control. (b) CHO-K1 cells stably expressing ErbB2 (CHO-K1/ErbB2 cells) were treated with 1 mM APMA for 0.25 h. Cell lysates were then prepared and analyzed by western blotting (the first lane on the right). The same cell lysates were mixed with 1 μM PEPD, which were then incubated with a PEPD antibody or an isotype-matched IgG, pulled down with protein G-agarose, and analyzed by western blotting.
Immunoprecipitation. PEPD was incubated with ErbB2/ECD-Fc, ErbB3/ECD-Fc, ErbB4/ECD-Fc or Fc in binding buffer for 2 h at 37° C., followed by pull down with protein G-sepharose beads. The immunoprecipitates were washed with IP washing buffer and analyzed by western blotting. […] The immunoprecipitates were washed with IP washing buffer and analyzed by western blotting.

[4] = molecular target: T2, Human ErbB2, wild type, full length (human, UniProt P04626 23-1255); assay: ELISA; ErbB2 captured from lysates of ErbB2-transfected CHO-K1 cells by an antibody to its cytoplasmic tail, His-tagged PEPD detected with anti-His
T2 construct: whole, on cells; Three sources: CHO-K1 cells transiently transfected with pCMV6-XL5-ERBB2, CHO-K1/ErbB2 cells expressing it stably, and BT-474 cells where it is endogenous; The ELISA and the immunoprecipitations used cell lysates; The other assays used living cells; also called WT-ErbB2; Her2
Description: (§1) Overexpression of human ErbB2 in CHO-K1 cells was readily achieved by gene transfection (FIG. 1b). […] Next, we removed the four ECD subdomains of human ErbB2 one at a time (FIG. 1d), using the ErbB2-expressing plasmid pCMV6-XL5-ERBB2 as a template. Similar protein expression levels of ErbB2 and its mutants were detected in CHO-K1 cells transiently transfected with the plasmids (FIG. 1d). An equal amount of ErbB2 and its mutants, based on western blot quantification, were used in the same ELISA mentioned above. […] Thus, PEPD bound to D3, but D2 and D4, the latter in particular, may facilitate PEPD binding to ErbB2.
(§2) ELISA-based measurement of PEPD and PEPD binding to ErbB2. To measure PEPD binding to human ErbB2 or its deletion mutants, ELISA plates were coated overnight at 4° C. with 100 μl/well of an ErbB2 antibody (binding to the cytoplasmic tail of ErbB2) at 10 μg/ml. After washing the wells three times with PBST, residual protein binding sites in the wells were blocked by incubation for 2 h at room temperature with 300 μl/well of 1% BSA in PBS. […] After three washes with PBST, 100 μl of a biotin-conjugated anti-His antibody (1:10,000 dilution; note that PEPD is His-tagged) was added to each well and incubated for 2 h at room temperature.

[5] = molecular target: T3, ErbB3/ECD-Fc, chimera of the ECD (Ser20-Thr643) of human ErbB3 and Fc (human, UniProt P21860 20-643); assay: pull-down with protein G-sepharose, SDS-PAGE, silver stain
T3 construct: range 20-643; Bought from R&D Systems; also called human ErbB3/ECD-Fc; R&D Systems 348-RB-050; not shown: Fc (of human IgG1)
Method: (§3) Similar protein expression levels of ErbB2 and its mutants were detected in CHO-K1 cells transiently transfected with the plasmids (FIG. 1d). An equal amount of ErbB2 and its mutants, based on western blot quantification, were used in the same ELISA mentioned above. […] Thus, PEPD bound to D3, but D2 and D4, the latter in particular, may facilitate PEPD binding to ErbB2.
(§4) Immunoprecipitation. PEPD was incubated with ErbB2/ECD-Fc, ErbB3/ECD-Fc, ErbB4/ECD-Fc or Fc in binding buffer for 2 h at 37° C., followed by pull down with protein G-sepharose beads. […] For detection of direct and specific binding of PEPD or NRG-1 to ErbB2, ErbB3 or ErbB4, recombinant human PEPD or NRG-1 was incubated with recombinant human ErbB2/ECD-Fc, recombinant human ErbB3/ECD-Fc, recombinant human ErbB4/ECD-Fc or recombinant human Fc in 0.4 ml binding buffer. All solutions were incubated for 2 h at 37° C., followed by incubation with protein G-sepharose beads for 1 h at room temperature. […] In experiments using whole cell lysates, cells were lysed in M-PER buffer supplemented with a proteinase inhibitor mix (Roche Applied Science), and the lysates were incubated with a specific antibody overnight at 4° C., followed by pull down by protein G-agarose. […]

[6] = molecular target: T4, ErbB4/ECD-Fc, chimera of the ECD (Gln26-Arg649) of human ErbB4 and the Fc (human, UniProt Q15303 26-649); assay: as above
T4 construct: range 26-649; Bought from R&D Systems; also called human ErbB4/ECD-Fc; R&D Systems 1131-ER-050; not shown: Fc (of human IgG1)
T4 sequence (looked up): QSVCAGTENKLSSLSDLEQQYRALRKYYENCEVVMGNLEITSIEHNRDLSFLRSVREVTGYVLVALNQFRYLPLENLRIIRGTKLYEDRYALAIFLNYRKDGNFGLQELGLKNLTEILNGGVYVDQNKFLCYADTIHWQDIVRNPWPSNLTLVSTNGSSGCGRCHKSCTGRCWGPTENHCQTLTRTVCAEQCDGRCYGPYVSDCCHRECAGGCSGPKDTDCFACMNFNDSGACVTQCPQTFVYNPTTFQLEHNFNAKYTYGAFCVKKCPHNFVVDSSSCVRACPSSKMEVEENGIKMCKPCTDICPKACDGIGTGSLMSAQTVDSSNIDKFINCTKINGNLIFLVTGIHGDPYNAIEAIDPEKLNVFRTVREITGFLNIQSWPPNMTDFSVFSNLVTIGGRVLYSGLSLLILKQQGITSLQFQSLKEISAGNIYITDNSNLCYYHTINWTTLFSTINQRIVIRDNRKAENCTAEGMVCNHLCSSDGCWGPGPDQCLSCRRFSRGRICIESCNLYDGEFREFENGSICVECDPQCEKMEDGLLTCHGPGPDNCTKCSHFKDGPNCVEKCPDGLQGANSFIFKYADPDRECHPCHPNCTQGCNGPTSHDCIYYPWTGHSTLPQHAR
Method: as §3, §4

[7] = molecular target: T5, ErbB2/delD2, human ErbB2 with deletion of ECD subdomain 2 (deletion of amino acids 196-320) (human, UniProt P04626 23-1255); assay: ELISA, equal amounts of ErbB2 and mutants from lysates of transfected CHO-K1 cells
T5 construct: whole, on cells; Transiently expressed in CHO-K1 cells; also called pCMV6-XL5-ERBB2/delD2
Description: as §1, §2

[8] = molecular target: T6, ErbB2/delD4, human ErbB2 with deletion of ECD subdomain 4 (deletion of amino acids 489-560) (human, UniProt P04626 23-1255); assay: as above
T6 construct: whole, on cells; Transiently expressed in CHO-K1 cells; also called pCMV6-XL5-ERBB2/delD4
Description: as §1, §2

T3 sequence (P21860 20-643 limits assumed, change not shown): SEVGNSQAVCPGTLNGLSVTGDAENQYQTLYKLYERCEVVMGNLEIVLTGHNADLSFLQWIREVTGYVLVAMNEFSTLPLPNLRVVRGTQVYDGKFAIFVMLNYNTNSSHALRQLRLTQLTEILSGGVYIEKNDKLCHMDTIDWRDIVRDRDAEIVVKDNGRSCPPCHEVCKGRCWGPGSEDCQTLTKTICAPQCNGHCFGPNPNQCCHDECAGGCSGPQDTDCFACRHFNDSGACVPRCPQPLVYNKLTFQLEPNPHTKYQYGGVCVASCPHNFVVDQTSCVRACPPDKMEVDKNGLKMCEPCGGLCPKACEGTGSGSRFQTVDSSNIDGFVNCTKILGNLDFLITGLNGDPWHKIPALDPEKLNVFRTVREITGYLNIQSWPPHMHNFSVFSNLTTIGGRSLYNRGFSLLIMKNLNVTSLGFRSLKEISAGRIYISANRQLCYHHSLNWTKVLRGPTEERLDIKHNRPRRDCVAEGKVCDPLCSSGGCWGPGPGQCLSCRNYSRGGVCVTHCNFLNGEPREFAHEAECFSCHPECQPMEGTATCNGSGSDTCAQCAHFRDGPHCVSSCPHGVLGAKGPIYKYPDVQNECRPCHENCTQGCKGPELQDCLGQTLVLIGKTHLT

Molecule: Recombinant human PEPD (peptidase D, prolidase), wild type, 6×His tagged at the carboxy terminus (from UniProt P12955 1-493)
- Kd [1]: 372 nM
- Kd [2]: 25.9 nM

- binding result [3]: no binding (tested: 1 µM PEPD)
- Kd [4]: 7.3 nM
- fold reduction of binding affinity against wild-type ErbB2 [7]: 3.5 fold
- fold reduction of binding affinity against wild-type ErbB2 [8]: 51 fold
B1: Recombinant human PEPD (peptidase D, prolidase), wild type, 6×His tagged at the carboxy terminus (ligand)
chain: MAAATGPSFWLGNETLKVPLALFALNRQRLCERLRKNPAVQAGSIVVLQGGEETQRYCTDTGVLFLQESFFHWAFGVTEPGCYGVIDVDTGKSTLFVPRLPASHATWMGKIHSKEHFKEKYAVDDVQYVDEIASVLTSQKPSVLLTLRGVNTDSGSVCREASFDGISKFEVNNTILHPEIVESRVFKTDMELEVLRYTNKISSEAHREVMKAVKVGMKEYGLESLFEHYCYSRGGMRHSSYTCICGSGENSAVLHYGHAGAPNDRTIQNGDMCLFDMGGEYYSVASDITCSFPRNGKFTADQKAVYEAVLLSSRAVMGAMKPGDWWPDIDRLADRIHLEELAHMGILSGSVDAMVQAHLGAVFMPHGLGHFLGIDVHDVGGYPEGVERIDEPGLRSLRTARHLQPGMVLTVEPGIYFIDHLLDEALADPARASFLNREVLQRFRGFGGVRIEEDVVVIDSGIELLTCVPRTVEEIEACMAGCDKAFTPFSGPKHHHHHH
notes: Made in bacteria (pBAD/Thio-TOPO, without the N-terminal Thio) and purified on nickel; also called WT-PEPD; rhPEPD
- binding result [5]: no binding (tested: PEPD 1 µM with 0.04 µM ErbB3/ECD-Fc)
- binding result [6]: no binding (tested: PEPD 1 µM with 0.04 µM ErbB4/ECD-Fc)

Reference: patent publication US20240293518A1 (HEALTH RESEARCH, published 2024)
